Patent publication US20160083466A1 (Regeneron, published 2016)

T1: human IL-25 expressed with a C-terminal myc-myc-hexahistidine tag (human)
T1 chain: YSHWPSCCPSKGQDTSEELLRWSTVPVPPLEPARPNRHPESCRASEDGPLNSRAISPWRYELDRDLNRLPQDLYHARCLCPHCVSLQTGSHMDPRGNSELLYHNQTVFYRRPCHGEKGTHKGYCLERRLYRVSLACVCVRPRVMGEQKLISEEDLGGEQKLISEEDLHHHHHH

T2: monkey IL-25 expressed with a C-terminal myc-myc-hexahistidine tag (M. fascicularis (cynomolgus monkey))
T2 chain: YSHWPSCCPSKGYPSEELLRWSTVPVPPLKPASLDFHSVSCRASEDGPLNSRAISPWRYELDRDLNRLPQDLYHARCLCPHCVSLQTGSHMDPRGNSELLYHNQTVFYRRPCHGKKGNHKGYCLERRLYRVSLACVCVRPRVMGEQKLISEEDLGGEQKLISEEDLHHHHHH

T3: mouse IL-25 expressed with a C-terminal myc-myc-hexahistidine tag (mouse)
T3 chain: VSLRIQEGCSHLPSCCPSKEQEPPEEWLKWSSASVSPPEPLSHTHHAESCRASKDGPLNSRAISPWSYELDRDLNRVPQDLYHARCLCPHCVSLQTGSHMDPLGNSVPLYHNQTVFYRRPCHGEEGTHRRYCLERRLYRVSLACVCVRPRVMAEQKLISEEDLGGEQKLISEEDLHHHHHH

T4: rat IL-25 expressed with a C-terminal myc-myc-hexahistidine tag (rat)
T4 construct: also called Rat IL-25-MMH
T4 chain: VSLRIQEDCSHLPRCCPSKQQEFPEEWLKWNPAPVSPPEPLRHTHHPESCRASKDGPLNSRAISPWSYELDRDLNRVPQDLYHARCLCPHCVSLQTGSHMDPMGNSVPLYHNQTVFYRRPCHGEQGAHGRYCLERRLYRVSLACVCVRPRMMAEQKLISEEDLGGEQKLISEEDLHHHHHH


How the values were obtained:
[1] = target: T1, human IL-25 expressed with a C-terminal …; test: cell-based or functional assay
[2] = target: T2, monkey IL-25 expressed with a …; test: cell-based or functional assay
[3] = target: T3, mouse IL-25 expressed with a C-terminal …; test: cell-based or functional assay
[4] = target: T2, monkey IL-25 expressed with a …; test: SPR Biacore, antibody captured, 37C;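 on 100 nM Monkey IL-25-MMH Bound (RU): biacore 4000 surface plasmon resonance biosensor measuring binding of IL-25-MMH to purified anti-IL-25 antibodies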;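 on 100 nM Mouse IL-25-MMH Bound (RU): Real-time sensorgrams of IL-25-MMH binding to purified anti-IL-25 antibodies, rate constants obtained by fitting a 1:1 binding model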
Description: (§1) Equilibrium dissociation constants (KD values) for IL-25 binding to purified anti-IL-25 antibodies were determined using a real-time surface plasmon resonance biosensor assay on a Biacore 4000 instrument (GE Healthcare). […] All the IL-25 reagents were expressed with a C-terminal myc-myc-hexahistidine tag (referred to herein as “IL-25-MMH”). […] Kinetic association (kₐ) and dissociation (kd) rate constants were determined by fitting the real-time sensorgrams to a 1:1 binding model using Scrubber 2.0c curve fitting software.

[5] = target: T3, mouse IL-25 expressed with a C-terminal …; test: SPR Biacore, antibody captured, 25C;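 on 100 nM Rat IL-25-MMH Bound (RU): purified anti-IL-25 antibodies were tested by real-time surface plasmon resonance on a Biacore 4000, with rate constants obtained from sensorgram fits to a 1:1 binding model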
Description: as §1

[6] = target: T3, mouse IL-25 expressed with a C-terminal …; test: SPR Biacore, antibody captured, 37C;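 on 100 nM Monkey IL-25-MMH Bound (RU): biacore 4000 surface plasmon resonance biosensor measuring binding of IL-25-MMH to purified anti-IL-25 antibodies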;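 on 100 nM Mouse IL-25-MMH Bound (RU): Real-time sensorgrams of IL-25-MMH binding to purified anti-IL-25 antibodies, rate constants obtained by fitting a 1:1 binding model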
[7] = target: T4, rat IL-25 expressed with a C-terminal …; test: SPR Biacore, antibody captured, 25C;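 on 100 nM Rat IL-25-MMH Bound (RU): purified anti-IL-25 antibodies were tested by real-time surface plasmon resonance on a Biacore 4000, with rate constants obtained from sensorgram fits to a 1:1 binding model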
[8] = target: T4, rat IL-25 expressed with a C-terminal …; test: SPR Biacore, antibody captured, 37C;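 on 100 nM Monkey IL-25-MMH Bound (RU): biacore 4000 surface plasmon resonance biosensor measuring binding of IL-25-MMH to purified anti-IL-25 antibodies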;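 on 100 nM Mouse IL-25-MMH Bound (RU): Real-time sensorgrams of IL-25-MMH binding to purified anti-IL-25 antibodies, rate constants obtained by fitting a 1:1 binding model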
Description: as §1

[9] = target: T1, human IL-25 expressed with a C-terminal …; test: BLI Octet, hIL-25-MMH captured on anti-Penta-His sensor, 25C
Description: Binding competition between anti-IL-25 monoclonal antibodies was determined using a real time, label-free bio-layer interferometry assay on an Octet QK384 biosensor (Pall ForteBio Corp.).
The biosensors were washed in HBST kinetics buffer in between every step of the experiment. The real-time binding response was monitored during the course of the experiment and the binding response at the end of every step was recorded.

[10] = target: T1, human IL-25 expressed with a C-terminal …; test: competition ELISA, 2 nM hIL-25-MMH binding to coated hIL-17RB-hFc
Description: (§2) Data analysis was performed using a sigmoidal dose-response model within Prism™ software (GraphPad). […] The absorbance values of the wells containing the highest concentration for each antibody were used to determine the percent maximum blockade.

[11] = target: T1, human IL-25 expressed with a C-terminal …; test: competition ELISA, 2 nM hIL-25-MMH binding to coated hIL-17RB-hFc; (*) below theoretical bottom of the assay
Description: as §2

[12] = target: T1, human IL-25 expressed with a C-terminal …; test: cell-based or functional assay

| IC50, luciferase reporter cells, 5 pM hIL-25-MMH [1] [M] | IC50, luciferase reporter cells, 12 pM MfIL-25-MMH [2] [M] | IC50, luciferase reporter cells, 10 pM mIL-25-MMH [3] [M] | 100 nM Monkey IL-25-MMH Bound (RU) [4] [RU] | Kd [4] [nM] | koff [4] [s⁻¹] | kon [4] [M⁻¹ s⁻¹] | t½ [4] [h] | 100 nM Mouse IL-25-MMH Bound (RU) [5] [RU] | Kd [5] [nM] | koff [5] [s⁻¹] | kon [5] [M⁻¹ s⁻¹] | t½ [5] [h] | 100 nM Mouse IL-25-MMH Bound (RU) [6] [RU] | Kd [6] [nM] | 100 nM Rat IL-25-MMH Bound (RU) [7] [RU] | 100 nM Rat IL-25-MMH Bound (RU) [8] [RU] | 50 ug/mL mAb-1 Binding (nm) [9] [nm] | % Maximum blocking of 200 nM antibody [10] [%] | IC50 [11] [nM] | Binder | also measured |
| --- | --- | --- | --- | --- | --- | --- | --- | --- | --- | --- | --- | --- | --- | --- | --- | --- | --- | --- | --- | --- | --- |
| 6.9e-10 | 3.5e-10 | 4.3e-09 | 51 | 0.0685 | 8.07e-05 | 1.18e+06 | 2.38 | 22 | 2.67 | 0.000149 | 55700 | 1.3 | 37 | 1.14 | 34 | 41 | 1.13 | 87 | 0.92 | H4H10863P (antibody, human IgG4, V domains shown, H4H prefix = human IgG4 Fc) VH: QVQLVQSGAEVKKPGASVKVSCKASGYTFSSYGISWVRQAPGQGLEWMGWISAYNDNTQYAQKFQGRVTMTTDTSTSTAYMELRSLRSDDTAVYYCARVPLQWFGESFDHWGQGTLVTVSS VL: DIQMTQSPSSLSASVGDRVTITCRASQDINNYLNWFQQKPGKAPKLLIFSTSSLQSGVPSRFSGSGSGTDFTLTISSLQSEDFATYYCQQTFITPLTFGGGTKVEIK | koff [6]: 0.000153 s⁻¹; kon [6]: 134000 M⁻¹ s⁻¹; t½ [6]: 1.27 h; Kd [7]: 1.07 nM; koff [7]: 0.000164 s⁻¹; kon [7]: 153000 M⁻¹ s⁻¹; t½ [7]: 1.17 h; Kd [8]: 0.72 nM; koff [8]: 0.000341 s⁻¹; kon [8]: 474000 M⁻¹ s⁻¹; t½ [8]: 0.567 h |
| 3.2e-10 | 8.8e-11 | 6.7e-10 | 54 | 0.0546 | 7.4e-05 | 1.35e+06 | 2.6 | 30 | 0.918 | 0.000111 | 121000 | 1.73 | 41 | 0.258 | 37 | 45 | 1.12 | 92 | 0.71 | H4H10871P (antibody, human IgG4, V domains shown, H4H prefix = human IgG4 Fc) VH: QVQLVQSGAEVMKPGASVKVSCKSSDFAFTTYGISWVRQAPGQGLEWMGWISAYNGNTNYEQRFQGRITMTTDTSTTTVYMELRSLRSDDTAVYYCARDPDYCSSNTCSDAFDLWGQGTMVTVSS VL: DIQMTQSPSSLSASVRDRVTITCRASQGITNYLAWYQQKPGKVPKVLIYAASTLQSGVPSRFSGSGSGTEFTLAISSLQPEDVATYFCQQYGSAPWTFGQGTKVEIK | IC50 values of antibodies for blocking IL-5 release from Donor #727058-059 [12]: 0.118 nM; IC50 values of antibodies for blocking IL-5 release from Donor #727060 [12]: 0.636 nM; koff [6]: 8.29e-05 s⁻¹; kon [6]: 322000 M⁻¹ s⁻¹; t½ [6]: 2.32 h; Kd [7]: 0.132 nM; koff [7]: 7.23e-05 s⁻¹; kon [7]: 548000 M⁻¹ s⁻¹; t½ [7]: 2.67 h; Kd [8]: 0.0602 nM; koff [8]: 5.64e-05 s⁻¹; kon [8]: 937000 M⁻¹ s⁻¹; t½ [8]: 3.42 h |
| 5.1e-10 | 2.1e-10 | 6.8e-10 | 59 | 0.135 | 9.01e-05 | 668000 | 2.13 | 43 | 1.17 | 0.000145 | 124000 | 1.33 | 47 | 0.441 | 45 | 49 | 1.59 | 86 | 0.53 | H4H10905P (antibody, human IgG4, V domains shown, H4H prefix = human IgG4 Fc) VH: QVQLVQSGAEVKKPGTSVKVSCKASGYTFTNYGISWVRQAPGQGLEWLGWISAYNDNTDYAQKLQARVTMTTDTFTSTAYMDLRSLRSDDTAVYYCARVPITGTTSSFDFWGQGTLVTVSS VL: DIQMTQSPSSLSASVGDRVTISCRASQTIYSYLNWFQQKPGKAPKLLIYDASSLQSGVPSRFSGSGSGTHFTLTISSLQPEDFATYFCQQTYSTPLTFGGGTKVEIK | koff [6]: 0.000178 s⁻¹; kon [6]: 403000 M⁻¹ s⁻¹; t½ [6]: 1.08 h; Kd [7]: 0.81 nM; koff [7]: 0.000135 s⁻¹; kon [7]: 167000 M⁻¹ s⁻¹; t½ [7]: 1.42 h; Kd [8]: 0.377 nM; koff [8]: 0.000181 s⁻¹; kon [8]: 481000 M⁻¹ s⁻¹; t½ [8]: 1.07 h |
| 4.6e-10 | 4e-10 | 1.5e-08 | 49 | 0.189 | 0.000231 | 1.22e+06 | 0.833 | 20 | 7.05 | 0.00104 | 148000 | 0.183 | 17 | 36.2 | 23 | 22 | 1.12 | 94 | 0.32 | H4H10897P (antibody, human IgG4, V domains shown, H4H prefix = human IgG4 Fc) VH: QVQLQESGPGLVKPSETLSLTCTVSGGSISDYYWSWIRQPPGKGLEWIGHIYYSGSTNHNPSLKSRVAISVDTSKNQFSLRLYSVTAADTAVYYCARDGYSSSSGFYYFGMDVWGQGTTVTVSS VL: DIQLTQSPSFLSASVGDRVTITCWASQDINSYLAWYQQKPGKAPKLLIFAASTLQGGVPSRFSGSGSGTEFTLTISSLQPEDFATYYCQHLSSFPPTFGQGTRLEIK | koff [6]: 0.00641 s⁻¹; kon [6]: 177000 M⁻¹ s⁻¹; t½ [6]: 0.03 h; Kd [7]: 2.42 nM; koff [7]: 0.000807 s⁻¹; kon [7]: 333000 M⁻¹ s⁻¹; t½ [7]: 0.233 h; Kd [8]: 24.6 nM; koff [8]: 0.00601 s⁻¹; kon [8]: 245000 M⁻¹ s⁻¹; t½ [8]: 0.0317 h |
| 3.6e-11 | 2.6e-11 |  | 94 | 0.0436 | 0.00019 | 4.35e+06 | 1.02 | -1 |  |  |  |  | 1 |  | -1 | 1 | 0.84 | 88 | 0.26 | H4H10864P (antibody, human IgG4, V domains shown, H4H prefix = human IgG4 Fc) VH: QVQLQESGPGLVKPSETLSLTCTVSGGSISNYFWSWIRQPPGKGLEWIGFNYNSGSTNYNPSLKSRVTISVDTSKNQFSLKLSSVTAADTAVYYCARGYNWNYEIAWFDPWGQGTLVTVSS VL: not shown | IC50 values of antibodies for blocking IL-5 release from Donor #727058-059 [12]: 1.15 nM; IC50 values of antibodies for blocking IL-5 release from Donor #727060 [12]: 0.677 nM |
| 3.1e-11 | 2.2e-11 |  | 50 | 0.0244 | 7.49e-05 | 3.07e+06 | 2.57 | 0 |  |  |  |  | 2 |  | 0 | 2 | 0.68 | 90 | 0.2 | H4H10900P (antibody, human IgG4, V domains shown, H4H prefix = human IgG4 Fc) VH: QVQLQESGPGLVRPSETLSLICTVSGGSINSYYWSWIRQPPGKGLEWIGYIYYSGSTNYNPSLKSRVTISGDTSKNQFSLKLSSVTAADTAVYYCARGVIWNYELREFDYWGQGTLVTVSS VL: not shown | IC50 values of antibodies for blocking IL-5 release from Donor #727058-059 [12]: 0.0392 nM; IC50 values of antibodies for blocking IL-5 release from Donor #727060 [12]: 0.578 nM; binding result [5]: no binding (tested: 100 nM); binding result [7]: no binding (tested: 100 nM) |
